Assay results published in patent publication US11518805B2, “Binding inhibitor between TCTP dimer type IgE-dependent histamine releasing factor and receptor thereof, and use thereof” (EWHA UNIVERSITY—INDUSTRY COLLABORATION FOUNDATION, priority 2014, dated 2022).
Entries after “also recorded” stand apart in the source; their conditions may differ.

Columns and labels:
[1] = system: BEAS-2B cells; assay: IL-8 secretion by f-TCTP, Δ-dTCTP and Del-N11dTCTP in BEAS-2B cells; type: cell-based; settings: protein at 1, 5 or 10 μg/ml, 24 hours, ELISA
Procedure: (§1) To investigate the IL-8 and GM-CSF secretory activity of f-TCTP, Δ-dTCTP, and Del-N11dTCTP in BEAS-2B cells, the present inventors compared the activity of f-TCTP, Δ-dTCTP, and Del-N11dTCTP by measuring the secretion of IL-8 in BEAS-2B cells.
(§2) Particularly, BEAS-2B cells were cultured in a 48-well plate until the confluency reached to 70%. Then, the cells were washed with 1% penicillin-streptomycin/BEBM (Clonetics) twice. Each recombinant protein of the Δ-dTCTP separated in Example 1 of the invention, and the f-TCTP and Del-N11dTCTP constructed by the method described in Korean Patent Application No. 2006-0007663 was added thereto at the concentration of 1 μg/ ? , 5 μg/ ? , or 10 μg/ ? 24 hours later, the supernatant was obtained and the released IL-8 and GM-CSF were quantified by ELISA.

[2] = system: BEAS-2B cells; assay: GM-CSF secretion by f-TCTP, Δ-dTCTP and Del-N11dTCTP in BEAS-2B cells; type: cell-based; settings: protein at 1, 5 or 10 μg/ml, 24 hours, ELISA
Procedure: as §1, §2

[3] = system: dTBP2 (dTCTP binding peptide 2); assay: Affinity of TCTP proteins to immobilized biotinylated dTBP2 (ELISA); settings: biotinylated dTBP2 0.01-10 μm on streptavidin plate; protein 0.2 μg/ml; ELISA 450/570 nm
Procedure: To investigate the affinity to dTBP2 of f-TCTP, Δ-dTCTP, and Del-N11dTCTP of the present invention, biotin was conjugated to the COOH-terminus of dTBP2 known to bind to HRF, followed by purification. The purified protein was immobilized in the plastic well coated with streptavidin, to which f-TCTP, Δ-dTCTP, and Del-N11dTCTP were added. Then, the binding strength of each protein was investigated.
Particularly, 50 ? of the biotinylated dTBTP2 dissolved in a buffer (TBS [25 mM Tris, 150 mM NaCl, pH 7.2], 0.1% BSA, 0.05% Tween-20) at different concentrations of 0.01, 0.1, 1, and 10 μm was added to Reacti-Bind Streptavidin Coated Polystyrene Plates (PIERCE), followed by reaction at room temperature for 2 hours. The plate was washed with a washing buffer three times. Each of f-TCTP, Δ-dTCTP, and Del-N11dTCTP was dissolved in TBS at the concentration of 0.2 μg/ ? . 60 ? of the mixture was added to each well of the plate, followed by reaction for 1 hour. The plate was washed with a washing buffer three times. 100 ? of anti-HRF rabbit antibody (Bio-Rad) diluted in a buffer (1:2000) was added to each well of the plate, which stood at room temperature for 30 minutes. The plate was washed with a washing buffer three times and with TBS once, to which HRP-conjugated anti-rabbit antibody (1:2000) was added (100 ? /well), which stood at room temperature for 30 minutes. The plate was washed with a washing buffer three times and with TBS once, to which […] (PIERCE), the peroxydase substrate solution, was added (100 ? /well). Color development was measured at 450 nm and 570 nm using an ELISA reader (Bio-Rad), and affinity was determined by the difference.

[4] = biological target: T1, Del-N11dTCTP (Rattus norvegicus, UniProt P63029); assay: Inhibition of Del-N11dTCTP-mediated IL-8 secretion by polyclonal antibodies recognizing FL and H2 domains in BEAS-2B cells; type: cell-based; parameters: dose or concentration left out as unconfirmed; settings: 20 hours
T1 construct: made in house
T1 sequence (P63029 11-172 limits assumed): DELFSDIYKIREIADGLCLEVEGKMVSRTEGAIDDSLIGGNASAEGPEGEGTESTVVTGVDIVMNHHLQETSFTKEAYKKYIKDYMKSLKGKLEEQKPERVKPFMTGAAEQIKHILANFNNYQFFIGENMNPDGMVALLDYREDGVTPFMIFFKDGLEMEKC
Procedure: The inhibitory effect on Del-N11dTCTP-mediated IL-8 secretion by the antibody recognizing FL and H2 domains constructed in Example 6 of the invention was investigated by treating the antibody to BEAS-2B cells.
Particularly, BEAS-2B cells were treated with anti-FL antibody and ani-H2 antibody at different concentrations. Then, Del-N11dTCTP-induced IL-8 secretion was compared. The BEAS-2B cells cultured in a 48-well plate were washed with 1% penicillin-streptomycin/BEBM (Lonza) twice, followed by serum starvation for 7 hours. The antibody diluted in PBS at the concentrations of 1 and 10 ng/ml was reacted with 70 μM Del-N11dTCTP at 37° C. for 2 hours. The reaction mixture was treated to the cells above. 20 hours later, the supernatant was obtained and the released IL-8 therein was quantified by ELISA.

[5] = biological target: T1, Del-N11dTCTP; assay: Inhibition of Del-N11dTCTP-mediated IL-8 secretion by polyclonal antibody recognizing C-terminus domain in BEAS-2B cells; type: cell-based; settings: Del-N11dTCTP 1 μg/mL, 20 hours
Procedure: BEAS-2B cells were treated with the antibody recognizing C-terminus domain constructed in Example 8 in order to investigate whether or not the antibody could inhibit the Del-N11dTCTP-mediated IL-8 secretion.
Particularly, BEAS-2B cells were treated with Del-N11dTCTP (1 μg/mL) by the same manner as described in Experimental Example 4. At this time, the antibody diluted in PBS at the concentration of 40 nM was mixed with 1 μg/mL of Del-N11dTCTP at room temperature, followed by reaction for 10 minutes. The reaction mixture was treated to the cells above. 20 hours later, the supernatant was obtained and the separated IL-8 therein was quantified by ELISA.

B1: Del-N11dTCTP: dimer form of amino terminal-deleted TCTP, active HRF form (protein, UniProt P13693 12-172, looked up, fragment)
chain: EMFSDIYKIREIADGLCLEVEGKMVSRTEGNIDDSLIGGNASAEGPEGEGTESTVITGVDIVMNHHLQETSFTKEAYKKYIKDYMKSIKGKLEEQRPERVKPFMTGAAEQIKHILANFKNYQFFIGENMNPDGMVALLDYREDGVTPYMIFFKDGLEMEKC
modifications: dimer
- secretion of IL-8 [1]: more than f-TCTP and Δ-dTCTP could do; also recorded: superior to f-TCTP and Δ-dTCTP
- secretion of GM-CSF [2]: more than f-TCTP and Δ-dTCTP could do; also recorded: superior to f-TCTP and Δ-dTCTP
- affinity to dTBP2 [3]: higher affinity to dTBP2 than f-TCTP or Δ-dTCTP; also recorded: higher dTBP2 affinity than f-TCTP and Δ-dTCTP
- IL-8 secretion, Del-N11dTCTP alone [4]: increased
- IL-8 secretion, PBS together with Del-N11dTCTP [5]: increased
